Sequences and labels used below:
B1: SEQ ID NO: 83 (VHH)
VHH: EVQLVESGGGLVQPGGSLRLSCAASRSIGRLDRMGWYRHRPGEPRELVATITGGSSINYGDSVKGRFTISIDNSKNTVYLQMNSLRPEDAAVYYCNFNKYVTSRDTWGQGTLVTVSS
B2: SEQ ID NO: 89 (VHH)
VHH: B1 VHH with L11S, P14A, A90T, T114Q, S116G, S117G
B3: SEQ ID NO: 87 (VHH)
VHH: B1 VHH with L11S, A90T, S116G, S117G
B4: SEQ ID NO: 85 (VHH)
VHH: B1 VHH with L11S, A90T, T114Q, S116G, S117G
B5: SEQ ID NO: 88 (VHH)
VHH: B1 VHH with L11S, A90T, T114Q
B6: SEQ ID NO: 84 (VHH)
VHH: B1 VHH with A90T, S116G
B7: SEQ ID NO: 86 (VHH)
VHH: B1 VHH with L11S, A90T, T114Q

Changes are numbered by the printed parent chain.

In one assay the target is T1, purified interference factor(s) from Donor C (human).
T1 construct: the text names the donors 8, 19 and 30; also called interference in serum from Donor C
Put plainly: SPR, interference factor immobilized; % of Fig. 9 reference.
For B1, the “interference binding, % of Reference Sequence” value (from here on “interference binding, %”) turned out to be 61%.

As for B2, the “interference binding, %” value was found to be 17%.

Turning to B3, the “interference binding, %” value was 39%.

Take B4: the “interference binding, %” value was found to be 42%.

For B5, the “interference binding, %” value amounted to 11%.

On to B6, for which the “interference binding, %” value worked out at 83%.

For the molecule B7, the “interference binding, %” value was 86%.

Another assay concerns the target T2, purified interference factor(s) from Donor A (human).
T2 construct: also called interference in serum from Donor A
The assay is described as above.
Turning to B1, the “interference binding, %” value worked out at 56%.

B2: the “interference binding, %” value came out at 14%.

Regarding B3, the “interference binding, %” value turned out to be 51%.

Take B4: the “interference binding, %” value came to 46%.

Turning to B5, the “interference binding, %” value was found to be 1%.

For B6, the “interference binding, %” value came to 84%.

As to B7, the “interference binding, %” value was 76%.

In another assay the target is T3, purified interference factor(s) from Donor B (human).
T3 construct: the text names the donors 8, 19 and 30; also called interference in serum from Donor B
The description is as above.
In the case of B1, the “interference binding, %” value was determined as 73%.

As for B2, the “interference binding, %” value was determined as 5%.

In the case of B3, the “interference binding, %” value came out at 5%.

For the molecule B4, the “interference binding, %” value is 5%.

In the case of B5, the “interference binding, %” value stood at 5%.

For the molecule B6, the “interference binding, %” value was found to be 50%.

Regarding B7, the “interference binding, %” value was 6%.

The values above are taken from patent EP2974737A1 (Ablynx N.V., dated 2016).
